The Km is the concentration of substrate that gives half-maximal velocity.

Here are results for six molecules from article PMC5821828, “A Genetic Screen for Investigating the Human Lysosomal CystineTransporter, Cystinosin” (Scientific Reports, 2018).

In series [1] the test system is T1, N[C@@H](CSSC[C@H](N)C(=O)O)C(=O)O.
T1 construct: lacks C-terminal GYDQLN (lysosomal targeting motif; Y363 and L366), untagged, p416TEF (ABE 3513), expressed in S. cerevisiae vps1Δvps17Δ (ABC 5017)
Put plainly: cells, lysate or membranes. Type of series: cell-based, Homo sapiens. To be noted: pH 5.5 (MES), 2% glucose, 30 °C, vps1Δvps17Δ yeast, labelled compound.

Substrate in series [2]: N[C@@H](CSSC[C@H](N)C(=O)O)C(=O)O
Put plainly: cells, lysate or membranes. Type of series: cell-based, Homo sapiens. To be noted: pH 5.5 (MES), 2% glucose, 30 °C, vps1Δvps17Δ yeast, labelled compound.

As for CTNS-Δgydql (Homo sapiens; DEL362-367), the Km in series [1] turned out to be 254.4 ± 61 µM.

B1: CTNS WT (human cystinosin with GYDQL motif) (Homo sapiens) (protein)
chain: SVSLTVPPVVKLENGSSTNVSLTLRPPLNATLVITFEITFRSKNITILELPDEVVVPPGVTNSSFQVTSQNVGQLTVYLHGNHSNQTGPRIRFLVIRSSAISIINQVIGWIYFVAWSISFYPQVIMNWRRKSVIGLSFDFVALNLTGFVAYSVFNIGLLWVPYIKEQFLLKYPNGVNPVNSNDVFFSLHAVVLTLIIIVQCCLYERGGQRVSWPAIGFLVLAWLFAFVTMIVAAVGVTTWLQFLFCFSYIKLAVTLVKYFPQAYMNFYYKSTEGWSIGNVLLDFTGGSFSLLQMFLQSYNNDQWTLIFGDPTKFGLGVFSIVFDVVFFIQHFCLYRKRPGYDQLN
notes: full-length, untagged, plasmid p416TEF (TEF-CTNS, ABE 3006), expressed in S. cerevisiae vps1Δvps17Δ; uptake across plasma membrane
B1: in series [2], the Km worked out at 400 ± 133 µM.

B2: CTNS-Δgydql (Homo sapiens; G197R) (protein)
chain: SVSLTVPPVVKLENGSSTNVSLTLRPPLNATLVITFEITFRSKNITILELPDEVVVPPGVTNSSFQVTSQNVGQLTVYLHGNHSNQTGPRIRFLVIRSSAISIINQVIGWIYFVAWSISFYPQVIMNWRRKSVIGLSFDFVALNLTGFVAYSVFNIGLLWVPYIKEQFLLKYPNRVNPVNSNDVFFSLHAVVLTLIIIVQCCLYERGGQRVSWPAIGFLVLAWLFAFVTMIVAAVGVTTWLQFLFCFSYIKLAVTLVKYFPQAYMNFYYKSTEGWSIGNVLLDFTGGSFSLLQMFLQSYNNDQWTLIFGDPTKFGLGVFSIVFDVVFFIQHFCLYRKRP
notes: lacks C-terminal GYDQLN (lysosomal targeting motif; Y363 and L366), untagged, p416TEF (ABE 3513), expressed in S. cerevisiae vps1Δvps17Δ (ABC 5017)
Regarding B2, in series [2], the Km is listed as 97.3 ± 30.9 µM.

B3: CTNS-Δgydql (Homo sapiens; G131S) (protein)
chain: SVSLTVPPVVKLENGSSTNVSLTLRPPLNATLVITFEITFRSKNITILELPDEVVVPPGVTNSSFQVTSQNVGQLTVYLHGNHSNQTGPRIRFLVIRSSAISIINQVISWIYFVAWSISFYPQVIMNWRRKSVIGLSFDFVALNLTGFVAYSVFNIGLLWVPYIKEQFLLKYPNGVNPVNSNDVFFSLHAVVLTLIIIVQCCLYERGGQRVSWPAIGFLVLAWLFAFVTMIVAAVGVTTWLQFLFCFSYIKLAVTLVKYFPQAYMNFYYKSTEGWSIGNVLLDFTGGSFSLLQMFLQSYNNDQWTLIFGDPTKFGLGVFSIVFDVVFFIQHFCLYRKRP
notes: as for B2
For B3, in series [2], the Michaelis-Menten constant (Km) stood at 130.4 ± 10.9 µM.

B4: CTNS-Δgydql (Homo sapiens; G309C) (protein)
chain: SVSLTVPPVVKLENGSSTNVSLTLRPPLNATLVITFEITFRSKNITILELPDEVVVPPGVTNSSFQVTSQNVGQLTVYLHGNHSNQTGPRIRFLVIRSSAISIINQVIGWIYFVAWSISFYPQVIMNWRRKSVIGLSFDFVALNLTGFVAYSVFNIGLLWVPYIKEQFLLKYPNGVNPVNSNDVFFSLHAVVLTLIIIVQCCLYERGGQRVSWPAIGFLVLAWLFAFVTMIVAAVGVTTWLQFLFCFSYIKLAVTLVKYFPQAYMNFYYKSTEGWSIGNVLLDFTGCSFSLLQMFLQSYNNDQWTLIFGDPTKFGLGVFSIVFDVVFFIQHFCLYRKRP
notes: as for B2
Regarding B4, the Michaelis-Menten constant (Km) in series [2] is 124.8 ± 23.5 µM.

B5: CTNS-Δgydql (Homo sapiens; S270T) (protein)
chain: SVSLTVPPVVKLENGSSTNVSLTLRPPLNATLVITFEITFRSKNITILELPDEVVVPPGVTNSSFQVTSQNVGQLTVYLHGNHSNQTGPRIRFLVIRSSAISIINQVIGWIYFVAWSISFYPQVIMNWRRKSVIGLSFDFVALNLTGFVAYSVFNIGLLWVPYIKEQFLLKYPNGVNPVNSNDVFFSLHAVVLTLIIIVQCCLYERGGQRVSWPAIGFLVLAWLFAFVTMIVAAVGVTTWLQFLFCFTYIKLAVTLVKYFPQAYMNFYYKSTEGWSIGNVLLDFTGGSFSLLQMFLQSYNNDQWTLIFGDPTKFGLGVFSIVFDVVFFIQHFCLYRKRP
notes: as for B2
Turning to B5, the Km in series [2] came to 207.2 ± 41.5 µM.
